The text below walks through data of patent publication US20050106655A1.

The target in data set [1] is PKA (protein kinase A) catalytic unit, Promega. In words: cell-based or functional assay.
Data set [2] relates to T1, Lissamine rhodamine-labeled peptide substrate (Dye-RPKPVE-Norvaline-WRKpSA).
T1 sequence: RPKPVEXWRKSA

For data set [3], the target named is T2, Lissamine rhodamine-labeled peptide substrate (Dye-QQQEVYGMMPRDpSA).
T2 chain: QQQEVYGMMPRDSA

With “PKI, a known synthetic peptide inhibitor of PKA”, the IC50 of inhibition of PKA activity (phosphorylation of Lissamine Rhodamine-labeled Kemptide, Fe(III) fluorescence quench assay) in data set [1] was found to be 2.6 nM.
Consider “Recombinant MMP-3 catalytic subunit (Matrix Metalloproteinase 3), Calbiochem”, for which the “Km (protease assay, fluorescence quench)” value in data set [2] is recorded as “Km was 1.44±0.15 µM”.

B1: Calpain 1 from human erythrocytes, Calbiochem (protein)
chain 1: SEEIITPVYCTGVSAQVQKQRARELGLGRHENAIKYLGQDYEQLRVRCLQSGTLFRDEAFPPVPQSLGYKDLGPNSSKTYGIKWKRPTELLSNPQFIVDGATRTDICQGALGDCWLLAAIASLTLNDTLLHRVVPHGQSFQNGYAGIFHFQLWQFGEWVDVVVDDLLPIKDGKLVFVHSAEGNEFWSALLEKAYAKVNGSYEALSGGSTSEGFEDFTGGVTEWYELRKAPSDLYQIILKALERGSLLGCSIDISSVLDMEAITFKKLVKGHAYSVTGAKQVNYRGQVVSLIRMRNPWGEVEWTGAWSDSSSEWNNVDPYERDQLRVKMEDGEFWMSFRDFMREFTRLEICNLTPDALKSRTIRKWNTTLYEGTWRRGSTAGGCRNYPATFWVNPQFKIRLDETDDPDDYGDRESGCSFVLALMQKHRRRERRFGRDMETIGFAVYEVPPELVGQPAVHLKRDFFLANASRARSEQFINLREVSTRFRLPPGEYVVVPSTFEPNKEGDFVLRFFSEKSAGTVELDDQIQANLPDEQVLSEEEIDENFKALFRQLAGEDMEISVKELRTILNRIISKHKDLRTKGFSLESCRSMVNLMDRDGNGKLGLVEFNILWNRIRNYLSIFRKFDLDKSGSMSAYEMRMAIESAGFKLNKKLYELIITRYSEPDLAVDFDNFVCCLVRLETMFRFFKTLDTDLDGVVTFDLFKWLQLTMFA
chain 2: MFLVNSFLKGGGGGGGGGGGLGGGLGNVLGGLISGAGGGGGGGGGGGGGGGGGGGGTAMRILGGVISAISEAAAQYNPEPPPPRTHYSNIEANESEEVRQFRRLFAQLAGDDMEVSATELMNILNKVVTRHPDLKTDGFGIDTCRSMVAVMDSDTTGKLGFEEFKYLWNNIKRWQAIYKQFDTDRSGTICSSELPGAFEAAGFHLNEHLYNMIIRRYSDESGNMDFDNFISCLVRLDAMFRAFKSLDKDGTGQIQVNIQEWLQLTMYS
Take B1: the “Km (protease assay, fluorescence quench)” value in data set [3] is “Km was 0.17±0.01 µM”.
